Measured values published in publication PMC9483790.

Molecular target: endogenous pyruvate kinase M2 (PKM2) (human (endogenous in PLC/PRF/5, SMMC-7721, HCCLM3, Huh7)) (UniProt P14618)
Assay: cross-linking

endogenous pyruvate kinase M2 (PKM2), P14618 1-531 (enzyme; other documents disagree on this pair), sequence (P14618 whole entry): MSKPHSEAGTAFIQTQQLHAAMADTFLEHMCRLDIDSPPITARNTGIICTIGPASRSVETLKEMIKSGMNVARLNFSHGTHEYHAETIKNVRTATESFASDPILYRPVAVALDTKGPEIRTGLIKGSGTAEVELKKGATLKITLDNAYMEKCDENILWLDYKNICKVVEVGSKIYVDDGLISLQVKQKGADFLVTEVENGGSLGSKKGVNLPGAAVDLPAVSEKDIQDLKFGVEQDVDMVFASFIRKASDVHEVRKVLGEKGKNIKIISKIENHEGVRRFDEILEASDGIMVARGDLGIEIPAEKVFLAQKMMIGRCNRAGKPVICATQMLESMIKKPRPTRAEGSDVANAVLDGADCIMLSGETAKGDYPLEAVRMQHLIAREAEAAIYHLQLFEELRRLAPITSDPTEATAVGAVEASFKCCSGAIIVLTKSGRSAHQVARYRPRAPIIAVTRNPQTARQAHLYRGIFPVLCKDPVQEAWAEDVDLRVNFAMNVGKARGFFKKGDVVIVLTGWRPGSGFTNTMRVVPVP

Q: With “endogenous pyruvate kinase M2 (PKM2), P14618 1-531 (enzyme; other documents disagree on this pair)” as the substance, how does the stoichiometry N read?
A: Its stoichiometry N is 2.
